Measured values reported in US20180273642A1 (EMERGENT PRODUCT DEVELOPMENT SEATTLE, published 2018).

T1: CD19 on cells (UniProt P15391 20-556, limits assumed)
T1 construct: whole, on cells
T1 sequence (looked up): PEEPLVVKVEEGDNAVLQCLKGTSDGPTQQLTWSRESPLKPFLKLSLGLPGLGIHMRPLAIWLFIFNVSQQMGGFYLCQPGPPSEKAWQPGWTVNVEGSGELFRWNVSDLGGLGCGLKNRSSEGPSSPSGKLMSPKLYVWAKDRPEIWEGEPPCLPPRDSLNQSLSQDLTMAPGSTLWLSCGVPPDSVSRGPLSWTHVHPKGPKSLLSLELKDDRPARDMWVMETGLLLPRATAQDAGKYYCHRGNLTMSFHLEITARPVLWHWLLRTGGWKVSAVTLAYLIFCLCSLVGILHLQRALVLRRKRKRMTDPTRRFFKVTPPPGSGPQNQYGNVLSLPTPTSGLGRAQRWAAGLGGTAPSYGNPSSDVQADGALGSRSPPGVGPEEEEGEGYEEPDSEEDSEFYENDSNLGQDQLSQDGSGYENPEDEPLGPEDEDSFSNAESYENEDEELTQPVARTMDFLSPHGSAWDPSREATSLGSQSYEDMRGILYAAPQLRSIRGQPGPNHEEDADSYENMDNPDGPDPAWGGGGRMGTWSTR

T2: CD20 on cells (UniProt P11836 1-297, limits assumed)
T2 construct: whole, on cells
T2 sequence (looked up): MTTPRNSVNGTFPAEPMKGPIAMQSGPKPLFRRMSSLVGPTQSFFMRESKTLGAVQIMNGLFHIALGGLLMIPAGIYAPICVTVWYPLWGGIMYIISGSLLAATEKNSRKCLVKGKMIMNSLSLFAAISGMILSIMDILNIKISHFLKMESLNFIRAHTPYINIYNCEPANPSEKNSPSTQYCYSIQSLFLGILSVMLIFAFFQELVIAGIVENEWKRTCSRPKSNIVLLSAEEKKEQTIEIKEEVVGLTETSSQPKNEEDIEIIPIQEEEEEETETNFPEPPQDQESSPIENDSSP

B1: monovalent anti-CD28 polypeptide heterodimer X0124 (Fc fusion)
chain 1: QVQLKESGPGSVAPSQSLSITCTVSGFSLTGYGVNWVRQPPGKGLEWLGMIWGDGSTDYNSALKSRLSITKDNSKSQVFLKMNSLQTDDTARYYCARDGYSNFHYYVMDYWGQGTSVTVSSGGGGSGGGGSGGGGSGGGGSDIVLTQSPASLAVSLGQRATISCRASESVEYYVTSLMQWYQQKPGQPPKLLISAASNVESGVPARFSGSGSGTDFSLNIHPVEEDDIAMYFCQQSRKVPWTFGGGTKLEIKSSSASTKGPSVFPLAPSSKSTSGGTAALGCLVKDYFPEPVTVSWNSGALTSGVHTFPAVLQSSGLYSLSSVVTVPSSSLGTQTYICNVNHKPSNTKVDKKVRTEPKSSDKTHTCPPCPSGAPELLGGPSVFLFPPKPKDTLMISRTPEVTCVVVDVSHEDPEVKFNWYVDGVEVHNAKTKPREEQYNSTYRVVSVLTVLHQDWLNGKEYKCKVSNKALPAPIEKTISKAKGQPREPQVYTLPPSRDELTKNQVSLTCLVKGFYPSDIAVEWESNGQPENNYKTTPPVLDSDGSFFLYSKLTVDKSRWQQGNVFSCSVMHEALHNHYTQKSLSLSPGK
chain 2: TVAAPSVFIFPPSDEQLKSGTASVVCLLNNFYPREAKVQWKVDNALQSGNSQESVTEQDSKDSTYSLSSTLTLSKADYEKHKVYACEVTHQGLSSPVTKSFNRGERTEPKSSDKTHTCPPCPSGAPELLGGPSVFLFPPKPKDTLMISRTPEVTCVVVDVSHEDPEVKFNWYVDGVEVHNAKTKPREEQYNSTYRVVSVLTVLHQDWLNGKEYKCKVSNKALPAPIEKTISKAKGQPREPQVYTLPPSRDELTKNQVSLTCLVKGFYPSDIAVEWESNGQPENNYKTTPPVLDSDGSFFLYSKLTVDKSRWQQGNVFSCSVMHEALHNHYTQKSLSLSPGK
notes: One 2E12 (anti-CD28) scFv only; also called X0112 + X0113
B2: bispecific polypeptide heterodimer TSC020 (anti-CD19 and anti-CD3) (bispecific antibody)
chain 1: DIVLTQSPASLAVSLGQRATISCKASQSVDYDGDSYLNWYQQIPGQPPKLLIYDASNLVSGIPPRFSGSGSGTDFTLNIHPVEKVDAATYHCQQSTEDPWTFGGGTKLEIKGGGGSGGGGSGGGGASQVQLQQSGAELVRPGSSVKISCKASGYAFSSYWMNWVKQRPGQGLEWIGQIWPGDGDTNYNGKFKGKATLTADESSSTAYMQLSSLASEDSAVYFCARRETTTVGRYYYAMDYWGQGTSVTVSSSEPKSSDKTHTCPPCPSGAPELLGGPSVFLFPPKPKDTLMISRTPEVTCVVVDVSHEDPEVKFNWYVDGVEVHNAKTKPREEQYNSTYRVVSVLTVLHQDWLNGKEYKCKVSNKALPAPIEKTISKAKGQPREPQVYTLPPSRDELTKNQVSLTCLVKGFYPSDIAVEWESNGQPENNYKTTPPVLDSDGSFFLYSKLTVDKSRWQQGNVFSCSVMHEALHNHYTQKSLSLSPGKSRASTKGPSVFPLAPSSKSTSGGTAALGCLVKDYFPEPVTVSWNSGALTSGVHTFPAVLQSSGLYSLSSVVTVPSSSLGTQTYICNVNHKPSNTKVDKKV
chain 2: EVQLQQSGPELVKPGASMKISCKASGYSFTGYIVNWLKQSHGKNLEWIGLINPYKGLTTYNQKFKGKATLTVDKSSSTAYMELLSLTSEDSAVYYCARSGYYGDSDWYFDVWGAGTTVTVSSGGGGSGGGGSGGGGSAQDIQMTQTTSSLSASLGDRVTISCRASQDIRNYLNWYQQKPDGTVKLLIYYTSRLHSGVPSRFSGSGSGTDYSLTIANLQPEDIATYFCQQGNTLPWTFGGGTKLVTKRSSEPKSSDKTHTCPPCPSGAPELLGGPSVFLFPPKPKDTLMISRTPEVTCVVVDVSHEDPEVKFNWYVDGVEVHNAKTKPREEQYNSTYRVVSVLTVLHQDWLNGKEYKCKVSNKALPAPIEKTISKAKGQPREPQVYTLPPSRDELTKNQVSLTCLVKGFYPSDIAVEWESNGQPENNYKTTPPVLDSDGSFFLYSKLTVDKSRWQQGNVFSCSVMHEALHNHYTQKSLSLSPGKSRTVAAPSVFIFPPSDEQLKSGTASVVCLLNYFYPREAKVQWKVDNALQSGNSQESATEQDSKDSTYSLSSELTLSKADYEKHKVYACEVTHQGLSSPVTKSFNRGE
notes: HD37 (anti-CD19) scFv and G19-4 (anti-CD3) scFv; also called CD19×αCD3; TSC001 + TSC019
B3: bispecific (CD20, CD3) polypeptide heterodimer TSC021 (bispecific antibody)
chain 1: QIVLSQSPAILSASPGEKVTMTCRASSSVSYMHWYQQKPGSSPKPWIYAPSNLASGVPARFSGSGSGTSYSLTISRVEAEDAATYYCQQWSFNPPTFGAGTKLELKDGGGSGGGGSGGGGASQAYLQQSGAESVRPGASVKMSCKASGYTFTSYNMHWVKQTPRQGLEWIGAIYPGNGDTSYNQKFKGKATLTVDKSSSTAYMQLSSLTSEDSAVYFCARVVYYSNSYWYFDVWGTGTTVTVSSSEPKSSDKTHTCPPCPSGAPELLGGPSVFLFPPKPKDTLMISRTPEVTCVVVDVSHEDPEVKFNWYVDGVEVHNAKTKPREEQYNSTYRVVSVLTVLHQDWLNGKEYKCKVSNKALPAPIEKTISKAKGQPREPQVYTLPPSRDELTKNQVSLTCLVKGFYPSDIAVEWESNGQPENNYKTTPPVLDSDGSFFLYSKLTVDKSRWQQGNVFSCSVMHEALHNHYTQKSLSLSPGKSRASTKGPSVFPLAPSSKSTSGGTAALGCLVKDYFPEPVTVSWNSGALTSGVHTFPAVLQSSGLYSLSSVVTVPSSSLGTQTYICNVNHKPSNTKVDKKV
chain 2: B2 chain 2
notes: 2H7 (anti-CD20) scFv and G19-4 (anti-CD3) scFv; also called αCD20×αCD3; TSC002 + TSC019
B4: bivalent anti-CD28 polypeptide heterodimer X0172 (Fc fusion)
chain 1: QVQLKESGPGSVAPSQSLSITCTVSGFSLTGYGVNWVRQPPGKGLEWLGMIWGDGSTDYNSALKSRLSITKDNSKSQVFLKMNSLQTDDTARYYCARDGYSNFHYYVMDYWGQGTSVTVSSGGGGSGGGGSGGGGSGGGGSDIVLTQSPASLAVSLGQRATISCRASESVEYYVTSLMQWYQQKPGQPPKLLISAASNVESGVPARFSGSGSGTDFSLNIHPVEEDDIAMYFCQQSRKVPWTFGGGTKLEIKSSSASTKGPSVFPLAPSSKSTSGGTAALGCLVKDYFPEPVTVSWNSGALTSGVHTFPAVLQSSGLYSLSSVVTVPSSSLGTQTYICNVNHKPSNTKVDKKVRTEPKSSDKTHTCPPCPSGAPELLGGPSVFLFPPKPKDTLMISRTPEVTCVVVDVSHEDPEVKFNWYVDGVEVHNAKTKPREEQYNSTYRVVSVLTVLHQDWLNGKEYKCKVSNKALPAPIEKTISKAKGQPREPQVYTLPPSRDELTKNQVSLTCLVKGFYPSDIAVEWESNGQPENNYKTTPPVLDSDGSFFLYSKLTVDKSRWQQGNVFSCSVMHEALHNHYTQKSLSLSPGKSRTVAAPSVFIFPPSDEQLKSGTASVVCLLNNFYPREAKVQWKVDNALQSGNSQESVTEQDSKDSTYSLSSTLTLSKADYEKHKVYACEVTHQGLSSPVTKSFNRGE
chain 2: TVAAPSVFIFPPSDEQLKSGTASVVCLLNNFYPREAKVQWKVDNALQSGNSQESVTEQDSKDSTYSLSSTLTLSKADYEKHKVYACEVTHQGLSSPVTKSFNRGERTEPKSSDKTHTCPPCPSGAPELLGGPSVFLFPPKPKDTLMISRTPEVTCVVVDVSHEDPEVKFNWYVDGVEVHNAKTKPREEQYNSTYRVVSVLTVLHQDWLNGKEYKCKVSNKALPAPIEKTISKAKGQPREPQVYTLPPSRDELTKNQVSLTCLVKGFYPSDIAVEWESNGQPENNYKTTPPVLDSDGSFFLYSKLTVDKSRWQQGNVFSCSVMHEALHNHYTQKSLSLSPGKSRASTKGPSVFPLAPSSKSTSGGTAALGCLVKDYFPEPVTVSWNSGALTSGVHTFPAVLQSSGLYSLSSVVTVPSSSLGTQTYICNVNHKPSNTKVDKKVNSLFNQEVQIPLTESYSPNSQVQLKESGPGSVAPSQSLSITCTVSGFSLTGYGVNWVRQPPGKGLEWLGMIWGDGSTDYNSALKSRLSITKDNSKSQVFLKMNSLQTDDTARYYCARDGYSNFHYYVMDYWGQGTSVTVSSGGGGSGGGGSGGGGSGGGGSDIVLTQSPASLAVSLGQRATISCRASESVEYYVTSLMQWYQQKPGQPPKLLISAASNVESGVPARFSGSGSGTDFSLNIHPVEEDDIAMYFCQQSRKVPWTFGGGTKLEIK
notes: also called X0130 + X0168
B5: 2E12 (anti-CD28) scFv (scFv)
scFv: QVQLKESGPGSVAPSQSLSITCTVSGFSLTGYGVNWVRQPPGKGLEWLGMIWGDGSTDYNSALKSRLSITKDNSKSQVFLKMNSLQTDDTARYYCARDGYSNFHYYVMDYWGQGTSVTVSSGGGGSGGGGSGGGGSGGGGSDIVLTQSPASLAVSLGQRATISCRASESVEYYVTSLMQWYQQKPGQPPKLLISAASNVESGVPARFSGSGSGTDFSLNIHPVEEDDIAMYFCQQSRKVPWTFGGGTKLEIK
notes: also called 2E12 scFv

Key:
CD28 on CD4+ T cells = target: T3, CD28 on CD4+ T cells (human, UniProt P10747 19-220); test: binding to CD4+ T cells (FIG. 3; method not described)
T3 construct: whole, on cells

CD19 on cells = target: T1, CD19 on cells; test: flow cytometry on Rec1 (CD19+, CD20+) cells, 100 nM to 0.1 nM, goat anti-human IgG-FITC
Text: (§1) T-cells were isolated from donor PBMCs using a Pan T-cell Isolation Kit II from Miltenyi Biotec (Bergisch Gladbach, Germany). Non T-cells were separated from PBMCs by being indirectly magnetically labeled with biotin-conjugated monoclonal antibodies and anti-biotin magnetic microbeads. These cells were then depleted by retaining them in a column surrounded by a magnetic field. The T-cells were not retained in the column and were collected in the flow through.
(§2) The cells were washed three times and then incubated with goat anti-human IgG-FITC (1:200 dilution) for another 30 minutes at 4° C. The cells were then washed again three times, fixed in 1% paraformaldehyde and read on a FACS-Calibur instrument.

CD20 on cells = target: T2, CD20 on cells; test: as above
Text: as §1, §2

Binder	binding result (CD28 on CD4+ T cells)	further results
B1	binds	–
B2	–	binding result (CD19 on cells): binds
B3	–	binding result (CD20 on cells): binds
B4	binds	–
B5	binds	–
